# Earlier results as cited in article PMC8469563.
# pKd: −log10 of the molar value.
# Target: C1q (Homo sapiens) (UniProt P02745)
# Chain of UniProt P02745 (P02745 23-245, chain 1 of 3): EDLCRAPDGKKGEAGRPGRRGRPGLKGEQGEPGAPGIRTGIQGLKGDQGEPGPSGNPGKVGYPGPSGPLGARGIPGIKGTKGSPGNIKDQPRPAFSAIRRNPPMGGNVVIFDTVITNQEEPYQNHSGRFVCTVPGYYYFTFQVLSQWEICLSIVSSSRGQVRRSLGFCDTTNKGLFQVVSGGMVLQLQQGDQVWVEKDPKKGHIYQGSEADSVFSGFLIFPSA
# Chain of UniProt P02745 (P02746 28-253, chain 2 of 3, further chain): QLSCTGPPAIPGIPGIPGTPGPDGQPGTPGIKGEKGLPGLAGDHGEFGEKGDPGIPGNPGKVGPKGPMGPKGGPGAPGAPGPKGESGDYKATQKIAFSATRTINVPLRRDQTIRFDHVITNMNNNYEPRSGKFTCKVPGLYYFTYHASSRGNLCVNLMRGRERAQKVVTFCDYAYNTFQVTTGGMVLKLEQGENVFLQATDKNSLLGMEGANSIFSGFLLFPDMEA
# Chain of UniProt P02745 (P02747 29-245, chain 3 of 3, further chain): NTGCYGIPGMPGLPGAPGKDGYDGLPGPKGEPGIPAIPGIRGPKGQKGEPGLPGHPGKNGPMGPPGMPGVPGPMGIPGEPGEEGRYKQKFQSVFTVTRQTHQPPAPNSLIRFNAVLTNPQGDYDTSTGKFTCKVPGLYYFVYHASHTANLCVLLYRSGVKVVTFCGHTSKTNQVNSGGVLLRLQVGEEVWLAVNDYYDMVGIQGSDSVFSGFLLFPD
substance,measurement,value
HMGB1 (from UniProt P09429),pKd,6.70
